The values that follow are results of earlier work, collected in article PMC5095918.

As usually defined, the Kd is the constant that tells how readily two partners part at equilibrium.

This series addresses FANCL RING (Homo sapiens) (UniProt Q9NW38).
Chain of UniProt Q9NW38 (Q9NW38 304-366): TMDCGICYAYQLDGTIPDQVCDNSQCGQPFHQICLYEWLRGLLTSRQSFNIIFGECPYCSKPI

For UBE2T (from UniProt Q9NPD8), the dissociation constant Kd was 450 nM.
